According to the supplement of paper PMC10567573:

B1: BTBD1 (parent)
chain: YGSIHGPTDYQVNIQIIEYEKKQT

Variants of: B1
Experiment: protein stability index of a GFP-peptide fusion (GPS, HEK-293T) (PSI 1-6); higher = more stable
Details: c terminus: a fixed tail appended
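Note: lentivirally expressed fusions sorted by FACS into six bins by GFP to DsRed ratio, PSI derived from sequencing read proportions per bin multiplied by bin number.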

Variant	protein stability index
YGLIHGPTDYQVNIQIIEYEKKQT [S3L]	2.94
YGHIHGPTDYQVNIQIIEYEKKQT [S3H]	3.09
YGYIHGPTDYQVNIQIIEYEKKQT [S3Y]	2.15
YGGIHGPTDYQVNIQIIEYEKKQT [S3G]	2.88
YGTIHGPTDYQVNIQIIEYEKKQT [S3T]	3.08
YGWIHGPTDYQVNIQIIEYEKKQT [S3W]	2.17
YGIIHGPTDYQVNIQIIEYEKKQT [S3I]	2.24
YGVIHGPTDYQVNIQIIEYEKKQT [S3V]	2.57
YGKIHGPTDYQVNIQIIEYEKKQT [S3K]	3.17
YGCIHGPTDYQVNIQIIEYEKKQT [S3C]	2.06
YGMIHGPTDYQVNIQIIEYEKKQT [S3M]	2.87
YGAIHGPTDYQVNIQIIEYEKKQT [S3A]	2.85
YGPIHGPTDYQVNIQIIEYEKKQT [S3P]	3.06
YGRIHGPTDYQVNIQIIEYEKKQT [S3R]	2.88
YGNIHGPTDYQVNIQIIEYEKKQT [S3N]	1.6
YGDIHGPTDYQVNIQIIEYEKKQT [S3D]	3.13
YGQIHGPTDYQVNIQIIEYEKKQT [S3Q]	3.33
YGFIHGPTDYQVNIQIIEYEKKQT [S3F]	2.64
YGEIHGPTDYQVNIQIIEYEKKQT [S3E]	3
YGSFHGPTDYQVNIQIIEYEKKQT [I4F]	2.21
YGSNHGPTDYQVNIQIIEYEKKQT [I4N]	2.93
YGSPHGPTDYQVNIQIIEYEKKQT [I4P]	3.1
YGSVHGPTDYQVNIQIIEYEKKQT [I4V]	2.63
YGSCHGPTDYQVNIQIIEYEKKQT [I4C]	2.32

Variant	protein stability index
YGSMHGPTDYQVNIQIIEYEKKQT [I4M]	2.41
YGSRHGPTDYQVNIQIIEYEKKQT [I4R]	1.93
YGSGHGPTDYQVNIQIIEYEKKQT [I4G]	2.16
YGSWHGPTDYQVNIQIIEYEKKQT [I4W]	2.5
YGSEHGPTDYQVNIQIIEYEKKQT [I4E]	3.45
YGSLHGPTDYQVNIQIIEYEKKQT [I4L]	2.94
YGSSHGPTDYQVNIQIIEYEKKQT [I4S]	2.45
YGSDHGPTDYQVNIQIIEYEKKQT [I4D]	4.08
YGSTHGPTDYQVNIQIIEYEKKQT [I4T]	2.81
YGSHHGPTDYQVNIQIIEYEKKQT [I4H]	2.79
YGSQHGPTDYQVNIQIIEYEKKQT [I4Q]	3.06
YGSKHGPTDYQVNIQIIEYEKKQT [I4K]	2.24
YGSYHGPTDYQVNIQIIEYEKKQT [I4Y]	2.94
YGSAHGPTDYQVNIQIIEYEKKQT [I4A]	2.95
YGSIHGATDYQVNIQIIEYEKKQT [P7A]	2.6
YGSIHGQTDYQVNIQIIEYEKKQT [P7Q]	2.65
YGSIHGSTDYQVNIQIIEYEKKQT [P7S]	2.76
YGSIHGDTDYQVNIQIIEYEKKQT [P7D]	3.29
YGSIHGYTDYQVNIQIIEYEKKQT [P7Y]	1.75
YGSIHGNTDYQVNIQIIEYEKKQT [P7N]	2.84
YGSIHGFTDYQVNIQIIEYEKKQT [P7F]	2.47
YGSIHGITDYQVNIQIIEYEKKQT [P7I]	2.44
YGSIHGCTDYQVNIQIIEYEKKQT [P7C]	2
YGSIHGWTDYQVNIQIIEYEKKQT [P7W]	4.06

Variant	protein stability index
YGSIHGETDYQVNIQIIEYEKKQT [P7E]	3.33
YGSIHGKTDYQVNIQIIEYEKKQT [P7K]	2.49
YGSIHGVTDYQVNIQIIEYEKKQT [P7V]	2.63
YGSIHGRTDYQVNIQIIEYEKKQT [P7R]	1.75
YGSIHGGTDYQVNIQIIEYEKKQT [P7G]	2.87
YGSIHGLTDYQVNIQIIEYEKKQT [P7L]	2.21
YGSIHGHTDYQVNIQIIEYEKKQT [P7H]	2.65
YGSIHGTTDYQVNIQIIEYEKKQT [P7T]	2.73
YGSIHGMTDYQVNIQIIEYEKKQT [P7M]	2.31
YGSIHGPFDYQVNIQIIEYEKKQT [T8F]	2.17
YGSIHGPADYQVNIQIIEYEKKQT [T8A]	2.71
YGSIHGPCDYQVNIQIIEYEKKQT [T8C]	2.25
YGSIHGPLDYQVNIQIIEYEKKQT [T8L]	1.91
YGSIHGPWDYQVNIQIIEYEKKQT [T8W]	3.36
YGSIHGPQDYQVNIQIIEYEKKQT [T8Q]	3.08
YGSIHGPMDYQVNIQIIEYEKKQT [T8M]	1.74
YGSIHGPVDYQVNIQIIEYEKKQT [T8V]	2.06
YGSIHGPDDYQVNIQIIEYEKKQT [T8D]	3.66
YGSIHGPPDYQVNIQIIEYEKKQT [T8P]	2.97
YGSIHGPSDYQVNIQIIEYEKKQT [T8S]	3.11
YGSIHGPNDYQVNIQIIEYEKKQT [T8N]	2.94
YGSIHGPKDYQVNIQIIEYEKKQT [T8K]	2.16
YGSIHGPIDYQVNIQIIEYEKKQT [T8I]	2.06
YGSIHGPRDYQVNIQIIEYEKKQT [T8R]	2.57

Variant	protein stability index
YGSIHGPEDYQVNIQIIEYEKKQT [T8E]	2.88
YGSIHGPGDYQVNIQIIEYEKKQT [T8G]	2.44
YGSIHGPHDYQVNIQIIEYEKKQT [T8H]	2.38
YESIHGPTDYQVNIQIIEYEKKQT [G2E]	3.59
YISIHGPTDYQVNIQIIEYEKKQT [G2I]	1.7
YVSIHGPTDYQVNIQIIEYEKKQT [G2V]	3.34
YQSIHGPTDYQVNIQIIEYEKKQT [G2Q]	2.59
YPSIHGPTDYQVNIQIIEYEKKQT [G2P]	2.81
YTSIHGPTDYQVNIQIIEYEKKQT [G2T]	1.9
YDSIHGPTDYQVNIQIIEYEKKQT [G2D]	3.7
YRSIHGPTDYQVNIQIIEYEKKQT [G2R]	2.5
YHSIHGPTDYQVNIQIIEYEKKQT [G2H]	2.36
YNSIHGPTDYQVNIQIIEYEKKQT [G2N]	3.28
YYSIHGPTDYQVNIQIIEYEKKQT [G2Y]	2.03
YKSIHGPTDYQVNIQIIEYEKKQT [G2K]	3.06
YLSIHGPTDYQVNIQIIEYEKKQT [G2L]	2.08
YWSIHGPTDYQVNIQIIEYEKKQT [G2W]	2.5
YCSIHGPTDYQVNIQIIEYEKKQT [G2C]	2.56
YASIHGPTDYQVNIQIIEYEKKQT [G2A]	1.62
YSSIHGPTDYQVNIQIIEYEKKQT [G2S]	2.45
YFSIHGPTDYQVNIQIIEYEKKQT [G2F]	2.48
YMSIHGPTDYQVNIQIIEYEKKQT [G2M]	2.83
